The values below come from paper PMC8051604.

For test [1], the target named is CitERF33, split-YFP fusion (BiFC) (Citrus reticulata cv. Suavissima (Ougan)).
In test [2] the target is CitCHS1 (citrus chalcone synthase 1), pGADT7 fusion (Citrus reticulata cv. Suavissima (Ougan)).
For test [3], the target named is CitCHS2 (citrus chalcone synthase 2), pGADT7 fusion (Citrus reticulata cv. Suavissima (Ougan)).

With “CitRAV1, split-YFP fusion (BiFC) (natural protein)”, the activation of the CitCHIL1 promoter by CitERF33 and CitRAV1 together (dual-luciferase assay in N. benthamiana leaves, LUC/REN against empty vector; 1.6-fold for CitERF33/EV or CitRAV1/EV) in test [1] turned out to be 10.6 fold.
Consider “CitCHIL1 (citrus type IV chalcone isomerase), pGBKT7 fusion (natural protein)”, for which, in test [2], the k cat value of CitCHS1 for malonyl-CoA with CitCHIL1 against without it (in vitro chalcone synthase assay, purified recombinant proteins) came to 1.86 fold and the k cat value of CitCHS1 for p-coumaroyl-CoA with CitCHIL1 against without it (in vitro chalcone synthase assay, purified recombinant proteins) came out at 1.81 fold. Besides, in test [3], the k cat value of CitCHS2 for malonyl-CoA with CitCHIL1 against without it (in vitro chalcone synthase assay, purified recombinant proteins) turned out to be 1.33 fold and the k cat value of CitCHS2 for p-coumaroyl-CoA with CitCHIL1 against without it (in vitro chalcone synthase assay, purified recombinant proteins) was 1.43 fold.
